{"source": "the RNAGym collection of RNA variant scans (doi:10.1093/molbev/msab373)", "parents": {"B1": {"name": "Azoarcus group I ribozyme (parent)", "chain": "GUGCCUUGCGCCGGGAAACCACGCAAGGGAUGGUGUCAAAUUCGGCGAAACCUAAGCGCCCGCCCGGGCGUAUGGCAACGCCGAGCCAAGCUUCGGCGCCUGCGCCGAUGAAGGUGUAGAGACUAGACGGCACCCACCUAAGGCAAACGCUAUGGUGAAGGCAUAGUCCAGGGAGUGGCGAAAGUCACACAAACCGG"}}}
{"variants_of": "B1", "assay": "reverse-splicing fitness (ratio to wild type); higher = more active; in vitro selection; Mg2+ level not given", "how_it_was_run": "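An in vitro group I ribozyme library with randomized positions was T7-transcribed and gel-purified. In triplicate, 10 pmol RNA in EPPS pH 7.5 was reacted with 50 pmoles of a 30-nt RNA substrate for 1 h at 37 °C across several added MgCl2 levels (1–48 mM), then stopped with EDTA. Products were reverse transcribed from a substrate-complementary primer, PCR-amplified and sequenced (HiSeq 4000). Fitness is a variant's read proportion after selection over that before, normalised to wild type.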"}
{"variant": "C82U A111C A120G A145G C150U U176A", "reverse-splicing fitness": 0.00886}
{"variant": "C82U A111C A120G A145G C150U U176C", "reverse-splicing fitness": 0.0169}
{"variant": "C82U A111C A120G A145G C150U U176G", "reverse-splicing fitness": 0.00547}
{"variant": "C82U A111C A120U A145G U176C", "reverse-splicing fitness": 0.0113}
{"variant": "C82U A111C A120U A145G U176G", "reverse-splicing fitness": 0.00307}
{"variant": "C82U A111C A120U A145G U176A", "reverse-splicing fitness": 0.00722}
{"variant": "C82U A111C A120G A145G C150G C169G U176C", "reverse-splicing fitness": 0.0114}
{"variant": "C82U A111C A120G A145G C150G C169G U176A", "reverse-splicing fitness": 0.00921}
{"variant": "C82U A111C A120G A145G C150G C169G U176G", "reverse-splicing fitness": 0.00526}
{"variant": "C82U A111C A120U A145C C169U U176C", "reverse-splicing fitness": 0.00263}
{"variant": "C82U A111C A120U A145C C169U U176A", "reverse-splicing fitness": 0.00335}
{"variant": "C82U A111C A120U A145C C169U U176G", "reverse-splicing fitness": 0.00205}
{"variant": "C82U A111C A120U A145G C150A C169U U176C", "reverse-splicing fitness": 0.00385}
{"variant": "C82U A111C A120U A145G C150A C169U U176A", "reverse-splicing fitness": 0.00566}
{"variant": "C82U A111C A120U A145G C150A C169U U176G", "reverse-splicing fitness": 0.00293}
{"variant": "C82U A111C A120G A145U C150G C169U U176C", "reverse-splicing fitness": 0.0106}
{"variant": "C82U A111C A120G A145U C150G C169U U176G", "reverse-splicing fitness": 0.00419}
{"variant": "C82U A111C A120G A145U C150G C169U U176A", "reverse-splicing fitness": 0.00881}
{"variant": "C82U A111C A120U A145G C150U U176A", "reverse-splicing fitness": 0.00854}
{"variant": "C82U A111C A120U A145G C150U U176C", "reverse-splicing fitness": 0.0107}
{"variant": "C82U A111C A120U A145G C150U U176G", "reverse-splicing fitness": 0.00287}
{"variant": "C82U A111C A120U A145C C150G U176G", "reverse-splicing fitness": 0.00239}
{"variant": "C82U A111C A120U A145C C150G U176A", "reverse-splicing fitness": 0.00275}
{"variant": "C82U A111C A120U A145C C150G U176C", "reverse-splicing fitness": 0.00485}
{"variant": "C82U A111C A120G C150A U176G", "reverse-splicing fitness": 0.00579}
{"variant": "C82U A111C A120G C150A U176A", "reverse-splicing fitness": 0.0152}
{"variant": "C82U A111C A120G C150A U176C", "reverse-splicing fitness": 0.0182}
{"variant": "C82U A111C A120U A145C C150U C169U U176G", "reverse-splicing fitness": 0.00224}
{"variant": "C82U A111C A120U A145C C150U C169U U176A", "reverse-splicing fitness": 0.00314}
{"variant": "C82U A111C A120U A145C C150U C169U U176C", "reverse-splicing fitness": 0.00255}
{"variant": "C82U A111C A120U A145C C150A C169A U176C", "reverse-splicing fitness": 0.00295}
{"variant": "C82U A111C A120U A145C C150A C169A U176G", "reverse-splicing fitness": 0.00183}
{"variant": "C82U A111C A120U A145C C150A C169A U176A", "reverse-splicing fitness": 0.00222}
{"variant": "C82U A111C A120G C150U U176G", "reverse-splicing fitness": 0.00514}
{"variant": "C82U A111C A120G C150U U176C", "reverse-splicing fitness": 0.0194}
{"variant": "C82U A111C A120G C150U U176A", "reverse-splicing fitness": 0.0106}
{"variant": "C82U A111C A120G A145U C150A C169U", "reverse-splicing fitness": 0.006}
{"variant": "C82U A111C A120G A145U C150A C169G", "reverse-splicing fitness": 0.00681}
{"variant": "C82U A111C A120G A145U C150A C169A", "reverse-splicing fitness": 0.00826}
{"variant": "C82U A111C A120U A145G C150G C169G U176G", "reverse-splicing fitness": 0.00376}
{"variant": "C82U A111C A120U A145G C150G C169G U176A", "reverse-splicing fitness": 0.00829}
{"variant": "C82U A111C A120U A145G C150G C169G U176C", "reverse-splicing fitness": 0.00782}
{"variant": "C82U A111C A120G A145G U176A", "reverse-splicing fitness": 0.0143}
{"variant": "C82U A111C A120G A145G U176G", "reverse-splicing fitness": 0.00476}
{"variant": "C82U A111C A120G A145G U176C", "reverse-splicing fitness": 0.0199}
{"variant": "C82U A111C A120G A145G C150A C169U U176G", "reverse-splicing fitness": 0.00519}
{"variant": "C82U A111C A120G A145G C150A C169U U176C", "reverse-splicing fitness": 0.0153}
{"variant": "C82U A111C A120G A145G C150A C169U U176A", "reverse-splicing fitness": 0.0158}
{"variant": "C82U A111C A120U A145G C169U", "reverse-splicing fitness": 0.00448}
{"variant": "C82U A111C A120U A145G C169A", "reverse-splicing fitness": 0.00276}
{"variant": "C82U A111C A120U A145G C169G", "reverse-splicing fitness": 0.0042}
{"variant": "C82U A111C A120U A145G C150U C169U", "reverse-splicing fitness": 0.00521}
{"variant": "C82U A111C A120U A145G C150U C169A", "reverse-splicing fitness": 0.00649}
{"variant": "C82U A111C A120U A145G C150U C169G", "reverse-splicing fitness": 0.00549}
{"variant": "C82U A111C A120G U176G", "reverse-splicing fitness": 0.00514}
{"variant": "C82U A111C A120G U176A", "reverse-splicing fitness": 0.0155}
{"variant": "C82U A111C A120G U176C", "reverse-splicing fitness": 0.02}
{"variant": "C82U A111C A120G A145U C150A C169U U176A", "reverse-splicing fitness": 0.0157}
{"variant": "C82U A111C A120G A145U C150A C169U U176G", "reverse-splicing fitness": 0.00435}
{"variant": "C82U A111C A120G A145U C150A C169U U176C", "reverse-splicing fitness": 0.0106}
{"variant": "C82U A111C A120G C169A U176C", "reverse-splicing fitness": 0.019}
{"variant": "C82U A111C A120G C169A U176G", "reverse-splicing fitness": 0.00418}
{"variant": "C82U A111C A120G C169A U176A", "reverse-splicing fitness": 0.0141}
{"variant": "C82U A111C A120U A145U C150G C169G U176A", "reverse-splicing fitness": 0.00332}
{"variant": "C82U A111C A120U A145U C150G C169G U176C", "reverse-splicing fitness": 0.00224}
{"variant": "C82U A111C A120U A145G C150A C169G U176G", "reverse-splicing fitness": 0.00246}
{"variant": "C82U A111C A120U A145G C150A C169G U176A", "reverse-splicing fitness": 0.00613}
{"variant": "C82U A111C A120U A145G C150A C169G U176C", "reverse-splicing fitness": 0.00549}
{"variant": "C82U A111C A120U A145G", "reverse-splicing fitness": 0.0248}
{"variant": "C82U A111C A120U A145C", "reverse-splicing fitness": 0.0226}
{"variant": "C82U A111C A120U A145U", "reverse-splicing fitness": 0.0254}
{"variant": "C82U A111C A120U A145G C150U C169G U176C", "reverse-splicing fitness": 0.00346}
{"variant": "C82U A111C A120U A145G C150U C169G U176G", "reverse-splicing fitness": 0.0025}
{"variant": "C82U A111C A120U A145G C150U C169G U176A", "reverse-splicing fitness": 0.00475}
{"variant": "C82U A111C A120U A145C C150G C169G U176G", "reverse-splicing fitness": 0.00241}
{"variant": "C82U A111C A120U A145C C150G C169G U176A", "reverse-splicing fitness": 0.0028}
{"variant": "C82U A111C A120U A145C C150G C169G U176C", "reverse-splicing fitness": 0.00262}
{"variant": "C82U A111C A120G C169A", "reverse-splicing fitness": 0.00844}
{"variant": "C82U A111C A120G C169U", "reverse-splicing fitness": 0.0077}
{"variant": "C82U A111C A120G C169G", "reverse-splicing fitness": 0.0104}
{"variant": "C82U A111C A120G A145G C150U C169A U176G", "reverse-splicing fitness": 0.00542}
{"variant": "C82U A111C A120G A145G C150U C169A U176C", "reverse-splicing fitness": 0.0142}
{"variant": "C82U A111C A120G A145G C150U C169A U176A", "reverse-splicing fitness": 0.0136}
{"variant": "C82U A111C A120U A145C C150A C169U U176A", "reverse-splicing fitness": 0.00323}
